Source: PMC3936728

T1: MepR (crystallization) (Staphylococcus aureus, UniProt Q5Y812 1-139)
T1 sequence: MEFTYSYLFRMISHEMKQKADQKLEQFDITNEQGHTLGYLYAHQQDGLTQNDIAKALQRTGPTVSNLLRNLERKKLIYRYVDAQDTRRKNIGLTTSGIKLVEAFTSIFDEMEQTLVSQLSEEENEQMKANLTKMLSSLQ

T2: MepR WT (Staphylococcus aureus, UniProt Q5Y812 1-139)
T2 sequence: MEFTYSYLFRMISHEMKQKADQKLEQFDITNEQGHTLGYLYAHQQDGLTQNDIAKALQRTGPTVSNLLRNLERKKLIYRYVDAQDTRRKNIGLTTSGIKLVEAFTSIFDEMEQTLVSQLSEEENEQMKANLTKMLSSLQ

B1: 24 bp palindromic mepR operator (dsDNA)
DNA 1: ATTTAGTTAGATATCTAACTAAAT
DNA 2: ATTTAGTTAGATATCTAACTAAAT
B2: 27 bp mepR, scrambled recognition helix region (dsDNA)
DNA 1: TATTTACTATGTGTATCTAGGAAATGG
DNA 2: CCATTTCCTAGATACACATAGTAAATA
B3: 14 bp mepR site (dsDNA)
DNA 1: GTTAGACATCTAAC
DNA 2: GTTAGATGTCTAAC

Assays:
[1] = target: T1, MepR (crystallization); test: crystal structure
[2] = target: T2, MepR WT; test: ITC

| Binder | binding result [1] | binding result [2] |
| --- | --- | --- |
| B1 | binds | – |
| B2 | – | no binding |
| B3 | – | no binding |
